The values that follow come from patent US20190010193A1 (REALTA, published 2019).

Ends that are not written are not given here.

One assay concerns the target C1q (human) (UniProt P02745). The assay is described as follows: cell-based or functional assay.
In a further assay the target is T1, calreticulin (UniProt P27797 18-417, limits assumed).
T1 construct: also called CRT; recombinant calreticulin
T1 sequence (looked up): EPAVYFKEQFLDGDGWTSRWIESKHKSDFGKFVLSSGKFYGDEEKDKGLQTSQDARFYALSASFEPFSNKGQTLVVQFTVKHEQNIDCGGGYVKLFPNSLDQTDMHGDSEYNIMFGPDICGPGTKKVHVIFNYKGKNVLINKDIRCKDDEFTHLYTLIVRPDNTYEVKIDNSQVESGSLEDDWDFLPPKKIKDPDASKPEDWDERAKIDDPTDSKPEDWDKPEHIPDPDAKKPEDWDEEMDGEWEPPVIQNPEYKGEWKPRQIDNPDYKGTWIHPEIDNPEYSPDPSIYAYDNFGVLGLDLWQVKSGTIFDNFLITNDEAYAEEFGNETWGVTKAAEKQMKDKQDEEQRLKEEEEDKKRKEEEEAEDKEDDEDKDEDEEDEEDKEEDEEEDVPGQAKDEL
The assay is described as follows: plates coated with C1q, calreticulin and BSA, PA peptide added (FIG. 14A).

Another assay deals with T2, BSA (UniProt P02769 25-607).
T2 construct: Negative control
T2 sequence (P02769 25-607 limits assumed): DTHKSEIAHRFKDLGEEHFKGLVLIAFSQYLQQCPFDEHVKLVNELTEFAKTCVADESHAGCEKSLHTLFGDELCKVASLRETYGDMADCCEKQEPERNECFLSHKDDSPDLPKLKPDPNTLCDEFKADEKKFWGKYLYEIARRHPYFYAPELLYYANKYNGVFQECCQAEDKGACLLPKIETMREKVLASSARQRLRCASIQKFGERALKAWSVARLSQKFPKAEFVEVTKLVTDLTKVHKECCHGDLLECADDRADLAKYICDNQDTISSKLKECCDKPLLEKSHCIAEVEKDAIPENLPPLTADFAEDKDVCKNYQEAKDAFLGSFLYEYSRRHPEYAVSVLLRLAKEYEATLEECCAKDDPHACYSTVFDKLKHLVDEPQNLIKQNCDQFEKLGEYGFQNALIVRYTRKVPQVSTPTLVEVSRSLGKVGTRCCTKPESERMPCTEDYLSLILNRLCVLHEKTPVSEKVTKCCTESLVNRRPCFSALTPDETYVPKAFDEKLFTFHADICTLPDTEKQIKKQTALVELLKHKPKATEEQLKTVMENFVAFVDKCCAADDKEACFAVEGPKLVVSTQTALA
Described as above.

Chain of C1q (human) (P02745 23-245, chain 1 of 3): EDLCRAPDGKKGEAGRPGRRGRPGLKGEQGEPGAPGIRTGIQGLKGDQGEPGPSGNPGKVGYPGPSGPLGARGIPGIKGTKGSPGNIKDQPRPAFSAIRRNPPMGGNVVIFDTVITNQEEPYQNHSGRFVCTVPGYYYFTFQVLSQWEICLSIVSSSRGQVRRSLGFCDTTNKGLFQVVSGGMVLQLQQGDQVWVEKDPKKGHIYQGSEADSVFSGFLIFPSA
Chain of C1q (human) (P02746 28-253, chain 2 of 3, further chain): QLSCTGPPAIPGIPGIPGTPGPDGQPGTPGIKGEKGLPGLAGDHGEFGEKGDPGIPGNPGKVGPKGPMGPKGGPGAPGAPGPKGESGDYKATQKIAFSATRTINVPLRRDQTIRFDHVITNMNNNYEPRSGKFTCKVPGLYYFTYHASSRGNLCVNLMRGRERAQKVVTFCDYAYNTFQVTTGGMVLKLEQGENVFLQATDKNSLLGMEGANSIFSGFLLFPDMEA
Chain of C1q (human) (P02747 29-245, chain 3 of 3, further chain): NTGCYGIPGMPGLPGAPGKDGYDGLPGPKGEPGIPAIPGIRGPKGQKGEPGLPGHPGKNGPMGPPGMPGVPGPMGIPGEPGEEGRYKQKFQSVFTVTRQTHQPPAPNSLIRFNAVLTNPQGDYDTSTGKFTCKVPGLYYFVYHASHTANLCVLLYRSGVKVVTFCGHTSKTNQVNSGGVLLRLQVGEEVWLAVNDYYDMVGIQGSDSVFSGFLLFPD

As to IALILEPICCQERAA-dPEG04 (cysteine pairing not given here) [PA-dPEG04], the Hemolysis (%), sensitized sheep RBCs, factor B-depleted human serum, peptide 0.77 mM with C1q (human) was determined as 12.4%. Consider IALILEPICCQERAA-dPEG24 (cysteine pairing not given here) [PA-dPEG24], for which, in the assay with C1q (human), the Hemolysis (%), sensitized sheep RBCs, factor B-depleted human serum, peptide 0.77 mM is 2.99%; the Hemolysis in presence of PA-dPEG24 (Abs 412 nm), plasma of Donor O+ #1 with B+ erythrocytes (0.747 without peptide) stood at 0.008 Abs 412 nm; the inhibition of hemolysis of B erythrocytes by type-O plasma, dose-response (FIG. 8) is above 95%. For the molecule IALILEPICCQERAA (also called PA; PIC1) [Polar Assortant peptide], the binding result with calreticulin and in the assay with BSA was “no binding” in each case. With IALILEPICCQERAA-dPEG03 (cysteine pairing not given here) [PA-dPEG03], the Hemolysis (%), sensitized sheep RBCs, factor B-depleted human serum, peptide 0.77 mM with C1q (human) was found to be 12.6%. On the same count and under the same terms, the result for IALILEPICCQERAA-dPEG20 (cysteine pairing not given here) [PA-dPEG20] reads 11.4%. As to IALILEPICCQERAA-dPEG16 (cysteine pairing not given here) [PA-dPEG16], the Hemolysis (%), sensitized sheep RBCs, factor B-depleted human serum, peptide 0.77 mM with C1q (human) amounted to 12%. Still for that read-out and setting: the result for IALILEPICCQERAA-dPEG12 (cysteine pairing not given here) [PA-dPEG12] reads 11.4%.

Consider IALILEPICCQERAA-dPEG08 (cysteine pairing not given here) [PA-dPEG08], for which the Hemolysis (%), sensitized sheep RBCs, factor B-depleted human serum, peptide 0.77 mM with C1q (human) is 34.7%.

Consider IALILEPICCQERAA-dPEG02 (cysteine pairing not given here) [PA-dPEG02], for which the Hemolysis (%), sensitized sheep RBCs, factor B-depleted human serum, peptide 0.77 mM in the assay with C1q (human) turned out to be 11.6%. As to IALILEPICCQERAA-dPEG06 (cysteine pairing not given here) [PA-dPEG06], in the assay with C1q (human), the Hemolysis (%), sensitized sheep RBCs, factor B-depleted human serum, peptide 0.77 mM came out at 44.8%.
